Patent publication US20170183390A1 (published 2017)
One block for each binder: values may come before it. Ends that are not written are not given here. * marks the point of attachment. FITC = O=C1OC2(c3ccc(O)cc3Oc3cc(O)ccc32)c2ccc(NC(=S)*)cc21

What was measured:
[1] = molecular target: T1, soluble αVβ6 headpiece, disulfide-linked (αV headpiece residues 1-594 with M400C); β6 headpiece residues 1-474 … (UniProt P06756 31-624; P18564 18-491, Interchain disulfide between αV Cys-400 and β6 Cys-270.); assay: fluorescence anisotropy competition
T1 alpha: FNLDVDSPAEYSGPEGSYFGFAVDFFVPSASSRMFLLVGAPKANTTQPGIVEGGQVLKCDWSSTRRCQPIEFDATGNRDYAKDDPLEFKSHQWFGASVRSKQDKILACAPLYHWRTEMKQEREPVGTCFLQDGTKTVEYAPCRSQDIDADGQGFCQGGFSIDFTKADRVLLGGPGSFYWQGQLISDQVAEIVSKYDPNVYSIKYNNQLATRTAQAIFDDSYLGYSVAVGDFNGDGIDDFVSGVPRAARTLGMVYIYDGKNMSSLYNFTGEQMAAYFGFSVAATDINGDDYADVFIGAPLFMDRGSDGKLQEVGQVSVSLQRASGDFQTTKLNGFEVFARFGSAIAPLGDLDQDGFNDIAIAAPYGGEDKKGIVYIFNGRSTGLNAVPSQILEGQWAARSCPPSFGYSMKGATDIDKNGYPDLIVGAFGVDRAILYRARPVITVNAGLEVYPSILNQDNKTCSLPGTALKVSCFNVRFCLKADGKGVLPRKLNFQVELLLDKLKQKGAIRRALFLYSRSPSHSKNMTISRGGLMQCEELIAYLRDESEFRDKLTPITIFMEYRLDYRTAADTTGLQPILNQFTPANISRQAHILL
T1 beta: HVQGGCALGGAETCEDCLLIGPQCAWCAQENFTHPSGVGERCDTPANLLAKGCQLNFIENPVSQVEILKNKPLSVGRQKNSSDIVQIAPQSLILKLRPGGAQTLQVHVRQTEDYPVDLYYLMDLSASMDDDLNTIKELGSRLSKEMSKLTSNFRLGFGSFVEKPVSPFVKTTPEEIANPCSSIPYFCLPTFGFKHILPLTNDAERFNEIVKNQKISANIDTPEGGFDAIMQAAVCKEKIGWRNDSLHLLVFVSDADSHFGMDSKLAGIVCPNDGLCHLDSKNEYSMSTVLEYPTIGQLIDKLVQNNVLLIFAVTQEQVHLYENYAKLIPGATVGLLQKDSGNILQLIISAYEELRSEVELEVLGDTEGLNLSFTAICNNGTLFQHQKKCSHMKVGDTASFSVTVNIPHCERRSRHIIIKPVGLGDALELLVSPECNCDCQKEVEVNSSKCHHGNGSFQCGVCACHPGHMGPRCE

[2] = molecular target: T2, soluble αVβ3 headpiece, disulfide-linked (αV headpiece residues 1-594 with M400C); β3 headpiece residues 1-472 … (UniProt P06756 31-624; P05106 27-498, Interchain disulfide between αV Cys-400 and β3 Cys-267.); assay: fluorescence anisotropy competition
T2 alpha: T1 alpha
T2 beta: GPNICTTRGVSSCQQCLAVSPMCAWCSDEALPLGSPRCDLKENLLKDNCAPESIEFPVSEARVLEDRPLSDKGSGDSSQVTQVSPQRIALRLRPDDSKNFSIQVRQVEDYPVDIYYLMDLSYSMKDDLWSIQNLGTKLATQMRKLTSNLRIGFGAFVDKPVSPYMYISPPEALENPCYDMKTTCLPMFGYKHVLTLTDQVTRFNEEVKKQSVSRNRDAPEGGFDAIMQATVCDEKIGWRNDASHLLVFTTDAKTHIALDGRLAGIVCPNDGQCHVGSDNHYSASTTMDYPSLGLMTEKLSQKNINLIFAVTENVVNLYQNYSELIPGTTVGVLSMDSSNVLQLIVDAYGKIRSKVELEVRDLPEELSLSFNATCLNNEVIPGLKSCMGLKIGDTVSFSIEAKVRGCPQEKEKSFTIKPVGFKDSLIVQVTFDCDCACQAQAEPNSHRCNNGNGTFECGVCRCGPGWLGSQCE

[3] = molecular target: T3, soluble αVβ6 headpiece, disulfide-linked (αV headpiece residues 1-594 with M400C); β6 headpiece residues 1-474 … (human, UniProt P06756 31-624; P18564 18-491, Interchain disulfide between αV Cys-400 and β6 Cys-270.); assay: fluorescence anisotropy, competition with FITC-GRGDLGRL on the αVβ6 headpiece
T3 construct: The 3C site, ACID/BASE coiled-coils, Strep-II tag and His tags were cut off with 3C protease; The two chains are linked by the introduced disulfide bond; also called modified integrin αVβ6 headpiece dimer; full headpiece
Experimental: (§1) Ligands bind to the integrin headpiece, which contains the α-subunit β-propeller domain and thigh domain, and the β-subunit βI, hybrid, PSI, and EGF1 domain. […] (SEQ ID NO: 68), peptide affinity for the αVβ₆ and αVβ₃ headpiece was measured with fluorescence anisotropy.
(§2) Fluorescence anisotropy. […] Binding affinities were calculated as described in Ref. 23.

[4] = molecular target: T4, soluble αVβ3 headpiece, disulfide-linked (αV headpiece residues 1-594 with M400C); β3 headpiece residues 1-472 … (human, UniProt P06756 31-624; P05106 27-498, Interchain disulfide between αV Cys-400 and β3 Cys-267.); assay: fluorescence anisotropy, competition with FITC-GRGDLGRL on the αVβ3 headpiece
T4 construct: tags and coiled-coils cut off with 3C protease
Experimental: as §1, §2

[5] = molecular target: T3, soluble αVβ6 headpiece, …; assay: crystal structure, peptide soaked into αVβ6 headpiece crystals
Experimental: αVβ₆ headpiece crystallization, data collection and structure determination. αVβ₆ crystals in hanging drops were formed with 3 mg/ml αVβ₆ headpiece in 20 mM Tris-HCl pH 8.0, 150 mM NaCl, 1 mM CaCl₂ and 1 mM MgCl₂ buffer (1 μl) and 1 μl reservoir solution of 20% PEG 4000, 0.1 M sodium cacodylate pH 6.0, 0.2 M ammonium sulfate. Identical vol:vol mixture of the protein and crystallization buffers yields a pH of 6.5. […] Immediately prior to flash freezing in liquid N₂, crystals were dipped in reservoir solution containing 25% glycerol with or without peptide, MgCl₂, and CaCl₂ each at 0.25 mM.

[6] = molecular target: T3, soluble αVβ6 headpiece, …; assay: fluorescence anisotropy, saturation binding, Mn2+/Ca2+
Experimental: (§3) (SEQ ID NO: 68), was synthesized. […] By competition binding assay, the affinities of different ligands were measured.
as §2

[7] = molecular target: T3, soluble αVβ6 headpiece, …; assay: fluorescence anisotropy, saturation binding, 1 mM Mg2+/Ca2+
Experimental: as §3, §2

[8] = molecular target: T1, soluble αVβ6 headpiece, …; assay: fluorescence anisotropy; pH 5.0
[9] = molecular target: T1, soluble αVβ6 headpiece, …; assay: fluorescence anisotropy; pH 6.0
[10] = molecular target: T1, soluble αVβ6 headpiece, …; assay: fluorescence anisotropy; pH 7.0
[11] = molecular target: T1, soluble αVβ6 headpiece, …; assay: fluorescence anisotropy; pH 8.0
[12] = molecular target: T1, soluble αVβ6 headpiece, …; assay: fluorescence anisotropy; pH 9.0

Kd [1]: 20.3 nM
Binder: HGRGDLGRLK

Kd [1]: 691 nM
Binder: HGRGDLG

Kd [2]: 4800 nM | Kd [3]: 8500 nM | fold lower affinity than the pro-TGF-β1 and pro-TGF-β3 nonapeptides [3]: 1000 fold
Binder: TSGDQKTIK (also called pro-TGF-β2 peptide) [homologous peptide from pro-TGF-β2, which has SGDQ in place of RGDL of pro-TGF-β1]

Kd [3]: 10.3 nM
Binder: RRGDLATIH (also called pro-TGF-β1 peptide) [nonapeptide containing RGD from pro-TGF-β1]

Kd [2]: 2300 nM | fold lower affinity than for αVβ6 [4]: 1000 fold | Kd [3]: 8.5 nM
B1: nonapeptide containing RGD from pro-TGF-β3 (GRGDLGRLK) (peptide)
peptide: GRGDLGRLK
notes: also called pro-TGF-β3 peptide; TGF-β3 nonapeptide

Kd [1]: 8900 nM
Binder: HGRGD

binding result [5]: binds | Kd [1]: 7.3 nM
B2: pro-TGF-β3 undecapeptide Ac-HGRGDLGRLKK-NH2 (peptide)
peptide: Ac-HGRGDLGRLKK-NH2
notes: also called Pro-TGF-β3 peptide; TGF-β3 peptide

Kd [1]: 296 nM
Binder: HGRGDLGR

Kd [1]: 28.4 nM
Binder: HGRGDLGRL

Kd [6]: 10 nM | Kd [7]: 100 nM | Kd [8]: 3810 nM | Kd [9]: 2000 nM | Kd [10]: 212 nM | Kd [11]: 84.6 nM | Kd [12]: 27.4 nM
Binder: {FITC}-GRGDLGRL (also called the probe) [FITC-GRGDLGRL (FITC-pro-TGF-β3 peptide, fluorescence probe)]

Kd [1]: 966 nM
Binder: HGRGDL
